Consider 15 molecules from patent US20080182978A1, “ANTI-NGF ANTIBODIES AND METHODS USING SAME” (RINAT NEUROSCIENCE CORP, priority 2002, published 2008).

Substitutions are numbered along the chain they refer to. Names may count otherwise.

In experiment [1] the target is T1, human NGF (Homo sapiens, UniProt P01138). The experiment is described as follows: cell-based or functional assay.
Target sequence in this assay (P01138 122-241 limits assumed): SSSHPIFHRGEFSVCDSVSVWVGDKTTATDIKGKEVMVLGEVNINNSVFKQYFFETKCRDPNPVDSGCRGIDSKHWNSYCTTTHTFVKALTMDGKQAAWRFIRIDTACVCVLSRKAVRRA
For a further experiment, the target named is rat NGF (rat) (UniProt P25427). In words: cell-based or functional assay.
In experiment [2] the target is T1, human NGF. In words: BIAcore screening assay of Fab library clones (koff). The class given is binding. On the procedure: Small scale expression in 96 wells plates was optimized for screening Fab libraries. Starting from E. coli transformed with a Fab library, colonies were picked to inoculate both a master plate (agar LB+Ampicillin (50 μg/ml)+2% Glucose) and a working plate (2 ml/well, 96 well/plate containing 1.5 mL of LB+Ampicillin (50 μg/ml)+2% Glucose). Both plates were grown at 30° C. for 8-12 hours. The master plate was stored at 4° C. and the cells from the working plate were pelleted at 5000 rpm and resuspended with 1 mL of LB+Ampicillin (50 μg/ml)+1 mM IPTG to induce expression of Fabs. Cells were harvested by centrifugation after 5 h expression time at 30° C., then resuspended in 500 μL of buffer HBS-EP ([…] buffer pH 7.4, 150 mM NaCl, 0.005% P20, 3 mM EDTA). Lysis of HBS-EP resuspended cells was attained by one cycle of freezing (−80° C.) then thawing at 37° C. Cell lysates were centrifuged at 5000 rpm for 30 min to separate cell debris from supernatants containing Fabs. The supernatants were then injected into the BIAcore plasmon resonance apparatus to obtain affinity information for each Fab. Clones expressing Fabs were rescued from the master plate to sequence the DNA and for large scale Fab production and detailed characterization as described below.
Affinities of anti-NGF Fabs and monoclonal antibodies were determined using the BIAcore300™ surface plasmon resonance (SPR) system (BIAcore, INC, Piscaway N.J.). CM5 chips were activated with N-ethyl-N′-(3-dimethylaminopropyl)-carbodimide hydrochloride (EDC) and N-hydroxysuccinimide (NHS) according to the supplier's instructions. Human NGF was diluted into 10 mM sodium acetate pH 4.0 and injected over the activated chip at a concentration of 0.005 mg/mL. Using variable flow time across the individual chip channels, two ranges of antigen density were achieved: 100-200 response units (RU) for detailed kinetic studies and 500-600 RU for screening assays. The chip was blocked with ethanolamine. […] HBS-EP buffer (0.01M HEPES, pH 7.4, 0.15 NaCl, 3 mM EDTA, 0.005% Surfactant […]) was used as running buffer for all the BIAcore assays.
A screening BIAcore assay was optimized to determine the affinity of Fab clones from libraries. Supernatants of small culture lysates were injected at 50 μl/min for 2 min. Dissociation times of 10 to 15 minutes were used for determination of a single exponential dissociation rate (koff) using BIAevaluation software. […] Clones showing improved (slower) koff values were expressed at large scale and full kinetic parameters, kon and koff, were determined on purified protein. The assay was capable of detecting differences in affinity that were approximately 2-fold or larger.
For affinity screening experiments, each library was further paired with the corresponding CDR-grafted light or heavy chain (for example, the H1/H2 library was paired with CDR-grafted light chain), the antibody was expressed, and affinity to human NGF of the individual clones was screened using the BIACORE surface plasmon resonance (SPR) system (BIAcore, Inc. Piscataway, N.J.) according to the manufacturer's instructions and as described above. koff, kon and KD were determined. Antibody clones were ranked based on koff rates, since generally most variation in affinity is seen in koff rates, and further because koff rates are independent of antibody concentration.
20-80 clones from each small library were screened using BIAcore analysis as described herein. Samples were simultaneously analyzed by BIAcore for binding affinity to NGF in one channel of the BIAcore chip and for presence of Fab by binding to a penta-histag antibody in another channel of the sensor chip, to detect the his tag at the C terminus of the heavy chain. Clones that expressed protein were classified as having the same affinity, worse affinity, better affinity or no binding, using koff to classify: The results of this analysis are shown in Table 5.
Target sequence in this assay (P01138 122-241): as the sequence (P01138 122-241 limits assumed) above
On the technique in general: SPR reads the build-up and loss of mass on a sensor chip optically.

Experiment [3] addresses T1, human NGF. The experiment is described as follows: Mouse E13.5 trigeminal neuron survival assay, human NGF. The class given is cell-based. Particulars: 1.5 or 15 pM human NGF. On the procedure:
(§1) The ability of Fab E3 or full antibody E3 to block NGF activity was evaluated by measurement of the capacity of the antibody to inhibit NGF-dependent survival of mouse E13.5 trigeminal neurons in vitro. The trigeminal ganglion is comprised of cutaneous sensory neurons that innervate the facial region. The survival of mouse E13.5 trigeminal neurons is a sensitive assay to evaluate the NGF-blocking activity of anti-NGF antagonist antibodies because NGF is required to support survival of these neurons. For example, at saturating concentrations of NGF, the survival is close to 100% by 48 hours in culture. By contrast, less than 5% of the neurons survive by 48 hours in absence of NGF.
The survival assay was conducted as follows: time-mated pregnant Swiss Webster female mice were euthanized by CO2 inhalation. The uterine horns were removed and the embryos at embryonic stage E13.5 were extracted and decapitated. The trigeminal ganglia were dissected using electrolytically sharpened tungsten needles. The ganglia were then trypsinized, mechanically dissociated and plated at a density of 200-300 cells per well in defined, serum-free medium in 96-well plates coated with poly-L-ornithine and laminin.
After 48 hours in culture, the cells were subjected to an automated immunocytochemistry protocol performed on a Biomek FX liquid handling workstation (Beckman Coulter) as follows: fixation using 4% formaldehyde, 5% sucrose, and PBS; permeabilization using 0.3% Triton X-100 in PBS); blocking of unspecific binding sites using 5% normal goat serum, 0.11% BSA in PBS; and sequential incubation with a primary and secondary antibodies to detect neurons. The primary antibody was rabbit polyclonal antibody against the protein gene product […] (PGP9.5, Chemicon), an established neuronal phenotypic marker. The secondary antibody was Alexa Fluor 488 goat anti-rabbit (Molecular Probes), together with the nuclear dye Hoechst 33342 (Molecular Probes) to label the nuclei of all the cells present in the culture. […]
Target sequence in this assay (P01138 122-241): as the sequence (P01138 122-241 limits assumed) above

Another experiment has as its target rat NGF (Rattus norvegicus, UniProt P25427). The experiment is described as follows: Mouse E13.5 trigeminal neuron survival assay, rat NGF. The class given is cell-based. Particulars: 1.5 or 15 pM rat NGF. On the procedure: as §1
The survival assay was conducted as follows: time-mated pregnant Swiss Webster female mice were euthanized by CO2 inhalation. The uterine horns were removed and the embryos at embryonic stage E13.5 were extracted and decapitated. The trigeminal ganglia were dissected using electrolytically sharpened tungsten needles. The ganglia were then trypsinized, mechanically dissociated and plated at a density of 200-300 cells per well in defined, serum-free medium in 96-well plates coated with poly-L-ornithine and laminin. […]

[4] abbreviates: Table 6: single CDR H3 or L3 mutation in 8L2-6D5 template.

Sequence of rat NGF (rat) (P25427 122-241 limits assumed): as the sequence (P01138 122-241 limits assumed) above, with S3T, I6V, R9M, M37T, D60A, D65E, M92T, G94D, V117A, A120G counted along it
Sequence of rat NGF (P25427 122-241): as the sequence (P01138 122-241 limits assumed) above, with S3T, I6V, R9M, M37T, D60A, D65E, M92T, G94D, V117A, A120G counted along it

In the experiment with human NGF [1], mouse antibody 911 (Fab) had an IC50, human NGF-dependent survival of mouse E13.5 trigeminal neurons, 1.5 pM NGF of 63.5 pM and an IC50, human NGF-dependent survival of mouse E13.5 trigeminal neurons, 15 pM NGF of 322 pM. In addition, in the experiment with rat NGF (rat), the IC50, rat NGF-dependent survival of mouse E13.5 trigeminal neurons, 1.5 pM NGF amounted to 34.6 pM and the IC50, rat NGF-dependent survival of mouse E13.5 trigeminal neurons, 15 pM NGF worked out at 161 pM.

B1: H19-L129: combined clone with matured CDRs H1, H2, L1, L2 and grafted H3 and L3 (antibody, V domains shown)
VH: QVQLQESGPGLVKPSETLSLTCTVSGFSLIGYDLNWIRQPPGKGLEWIGIIWGDGTTDYNSAVKSRVTISKDTSKNQFSLKLSSVTAADTAVYYCARGGYYYGTSYYFDYWGQGTLVTVS
VL: DIQMTQSPSSLSASVGDRVTITCRASQSISNNLNWYQQKPGKAPKLLIYYTSRFHSGVPSRFSGSGSGTDFTFTISSLQPEDIATYYCQQSKTLPYTFGQGTKLEIKRT
Usually koff stands for the first-order rate constant of dissociation. Take B1: the off-rate constant (koff) was 0.00011 s⁻¹ with human NGF [2] (Table 4: combination clone, mutations in CDRs H1, H2, L1, L2) and 1.1 e-4 s-1 with human NGF [2] (Table 8: CDR L3 H3 combination mutations, H19-L129 template (H1H2L1L2 matured)). Further, the “blocking of human NGF-dependent trigeminal neuron survival” value with human NGF [3] was “strongly blocked”. Besides, the “blocking of rat NGF-dependent trigeminal neuron survival” value with rat NGF was “strongly blocked”.

B2: T104S: 8L2-6D5 template with CDR H3 mutation T104S (antibody, V domains shown)
VH: B1 VH with L34I, I50M, V63L, T104S
VL: B1 VL with S28D, N32H, T51I
Turning to B2, the koff with human NGF [2] (setting [4]) came to 0.0022 s⁻¹.

B3: D109N: 8L2-6D5 template with CDR H3 mutation D109N (antibody, V domains shown)
VH: B1 VH with L34I, I50M, V63L, D109N
VL: B1 VL with S28D, N32H, T51I
Turning to B3, the off-rate constant (koff) with human NGF [2] (setting [4]) came to 0.0015 s⁻¹.

B4: Y110R: 8L2-6D5 template with CDR H3 mutation Y110R (antibody, V domains shown)
VH: B1 VH with L34I, I50M, V63L, Y110R
VL: B1 VL with S28D, N32H, T51I
In turn, B4 came in with a koff with human NGF [2] (setting [4]) of 0.0016 s⁻¹.

B5: D109G: 8L2-6D5 template with CDR H3 mutation D109G (antibody, V domains shown)
VH: B1 VH with L34I, I50M, V63L, D109G
VL: B1 VL with S28D, N32H, T51I
B5 had a koff with human NGF [2] (setting [4]) of 0.001 s⁻¹.

B6: F108W: 8L2-6D5 template with CDR H3 mutation F108W (antibody, V domains shown)
VH: B1 VH with L34I, I50M, V63L, F108W
VL: B1 VL with S28D, N32H, T51I
Molecule B6 showed a dissociation rate constant (koff) with human NGF [2] (setting [4]) of 0.00122 s⁻¹.

B7: Y106R: 8L2-6D5 template with CDR H3 mutation Y106R (antibody, V domains shown)
VH: B1 VH with L34I, I50M, V63L, Y106R
VL: B1 VL with S28D, N32H, T51I
In the case of B7, the koff in the experiment with human NGF [2] (setting [4]) turned out to be 0.0016 s⁻¹.

B8: Y106T: 8L2-6D5 template with CDR H3 mutation Y106T (antibody, V domains shown)
VH: B1 VH with L34I, I50M, V63L, Y106T
VL: B1 VL with S28D, N32H, T51I
As to B8, in the experiment with human NGF [2] (setting [4]), the koff was 0.002 s⁻¹.

B9: Y107F: 8L2-6D5 template with CDR H3 mutation Y107F (antibody, V domains shown)
VH: B1 VH with L34I, I50M, V63L, Y107F
VL: B1 VL with S28D, N32H, T51I
Molecule B9 yielded a koff with human NGF [2] (setting [4]) of 0.0014 s⁻¹.

B10: Y110K: 8L2-6D5 template with CDR H3 mutation Y110K (antibody, V domains shown)
VH: B1 VH with L34I, I50M, V63L, Y110K
VL: B1 VL with S28D, N32H, T51I
In the experiment with human NGF [2] (setting [4]), B10 showed a koff of 0.0014 s⁻¹.

B11: Y110S: 8L2-6D5 template with CDR H3 mutation Y110S (antibody, V domains shown)
VH: B1 VH with L34I, I50M, V63L, Y110S
VL: B1 VL with S28D, N32H, T51I
As to B11, the koff in the experiment with human NGF [2] (setting [4]) is 0.0015 s⁻¹.

B12: Y110T: 8L2-6D5 template with CDR H3 mutation Y110T (antibody, V domains shown)
VH: B1 VH with L34I, I50M, V63L, Y110T
VL: B1 VL with S28D, N32H, T51I
In turn, B12 returned a koff with human NGF [2] (setting [4]) of 0.0017 s⁻¹.

B13: Y106M: 8L2-6D5 template with CDR H3 mutation Y106M (antibody, V domains shown)
VH: B1 VH with L34I, I50M, V63L, Y106M
VL: B1 VL with S28D, N32H, T51I
The molecule B13 yielded a koff with human NGF [2] (setting [4]) of 0.0027 s⁻¹.

B14: Y96R: 8L2-6D5 template with CDR L3 mutation Y96R (antibody, V domains shown)
VH: B1 VH with L34I, I50M, V63L
VL: B1 VL with S28D, N32H, T51I, Y96R
As for B14, the koff with human NGF [2] (setting [4]) was 0.0017 s⁻¹.
